We go through 2 proteins from paper PMC4216055 (Carcinogenesis, 2014).

Positions count from the first letter of the chain named.

The series deals with the molecule itself. Description: cross-linking.

B1: Human recombinant granulin-epithelin precursor (rGEP) (natural protein, UniProt P28799 14-593, looked up)
chain: LVAGTRCPDGQFCPVACCLDPGGASYSCCRPLLDKWPTTLSRHLGGPCQVDAHCSAGHSCIFTVSGTSSCCPFPEAVACGDGHHCCPRGFHCSADGRSCFQRSGNNSVGAIQCPDSQFECPDFSTCCVMVDGSWGCCPMPQASCCEDRVHCCPHGAFCDLVHTRCITPTGTHPLAKKLPAQRTNRAVALSSSVMCPDARSRCPDGSTCCELPSGKYGCCPMPNATCCSDHLHCCPQDTVCDLIQSKCLSKENATTDLLTKLPAHTVGDVKCDMEVSCPDGYTCCRLQSGAWGCCPFTQAVCCEDHIHCCPAGFTCDTQKGTCEQGPHQVPWMEKAPAHLSLPDPQALKRDVPCDNVSSCPSSDTCCQLTSGEWGCCPIPEAVCCSDHQHCCPQGYTCVAEGQCQRGSEIVAGLEKMPARRASLSHPRDIGCDQHTSCPVGQTCCPSLGGSWACCQLPHAVCCEDRQHCCPAGYTCNVKARSCEKEVVSAQPATFLARSPHVGVKDVECGEGHFCHDNQTCCRDNRQGWACCPYRQGVCCADRRHCCPAGFRCAARGTKCLRREAPRWDAPLRDPALRQLL
modifications: N-glycan (removed by PNGase F only for the gel analysis)
Turning to B1, the binding result is “binds”.

B2: rGEP-3A (rGEP with alanine mutations at RRH(555-557)) (natural protein, human, UniProt P28799 14-593, looked up)
chain: B1 chain with R542A, R543A, H544A
Take B2: the binding result was “binds”.
